Patent US20060281899A1, “Mutants of biotin binding protein” (priority 2002, published 2006)

Assay: Microparticle analysis, BF523-biotin binding of protein-coated particles before and after 95° C.
Type: physicochemical
Method: Before the analysis, 3.22 μm microparticles with COOH-group/0.852 nm2 (Bangs laboratories, Fishers, Ind., USA) were covalently coated with biotin-binding proteins. Microparticles (1*108 pcs) were washed twice with H20 by sequential centrifuging (5000 g; 3 min) and aspiration, and resuspended in 200 μl PB buffer (50 mM NaH2PO4-HCl, pH 3.0). A solution of biotin binding protein (50 μl, 1 mg/ml or 3 mg/ml, 50 mM Na-acetate pH 4.0) was added while vortexing. The suspension was incubated for 1 h (500 rpm; 23° C.). Particles were washed with PB and with MES buffer (50 mM, pH 5.5) and suspended in MES buffer (200 μl). […] After the last wash particles were suspended in 100 μl volume and concentration of particles was determined with Multisizer 3 Coulter Counter (Beckman Coulter, Fullerton, Calif., USA). […]
Microparticles (5*106 pcs) were suspended in 900 μl of assay buffer and aliquoted in […] PCR-tubes (i-v; 180 μl/aliquot). […] The samples were measured with ArcDia TPX PlateReader (ArcDia Ltd.) (Soini, E., Meltola, N. J., Soini, A. E., Soukka, J., Soini, J. T. & Hanninen, P. E. (2000) Biochem. Soc. Trans. 28, 70-74). […]
The fluorescence emission efficiencies of the BF523-biotin conjugate (200 nM) was determined before and after the incubation (30 min) at 95° C. […]

B1: AVR4/5: Recombinant chicken avidin-related protein 4/5 (AVR4 and AVR5 identical in coding sequence) (protein, UniProt P56734 25-150, looked up)
Avidin-related protein 4/5: ARKCSLTGKWTNNLGSIMTIRAVNSRGEFTGTYLTAVADNPGNITLSPLLGIQHKRASQPTFGFTVHWNFSESTTVFTGQCFIDRNGKEVLKTMWLLRSSVNDISYDWKATRVGYNNFTRLCTVEE
original signal after heat treatment of coated particles (30 minutes at 95° C., BF523-biotin added after treatment (iv)): 93% | capacity of coated particles (BF523-biotin binding, no heat treatment (i, iii)): remarkably higher
